In patent US20230265170A1:

Key:
Experiment in all cases: cell-based or functional assay
[1] = biological target: SARS-CoV-2 spike (S) protein of the variant printed 'BA.1' in column 9 of Table 32 (SARS-CoV-2)
[2] = biological target: synthetic SARS-CoV-2 spike 'BA.4 + all' (SARS-CoV-2 (synthetic variant))
[3] = biological target: SARS-CoV-2 Omicron BA.1 spike (S) protein (SARS-CoV-2)
[4] = biological target: SARS-CoV-2 Omicron BA.2 spike (S) protein (SARS-CoV-2)
[5] = biological target: SARS-CoV-2 Omicron BA.3 spike (S) protein (SARS-CoV-2)

Chain of Omi-29 (antibody) (VH): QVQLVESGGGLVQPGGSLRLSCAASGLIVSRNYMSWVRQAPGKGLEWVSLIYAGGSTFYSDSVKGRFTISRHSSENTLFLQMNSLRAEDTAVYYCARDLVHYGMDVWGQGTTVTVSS
Chain of Omi-29 (antibody) (VL): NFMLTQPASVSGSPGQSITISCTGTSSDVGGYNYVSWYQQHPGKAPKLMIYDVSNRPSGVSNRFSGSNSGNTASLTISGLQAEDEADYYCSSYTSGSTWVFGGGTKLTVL
Chain of Omi-18 (antibody) (VH): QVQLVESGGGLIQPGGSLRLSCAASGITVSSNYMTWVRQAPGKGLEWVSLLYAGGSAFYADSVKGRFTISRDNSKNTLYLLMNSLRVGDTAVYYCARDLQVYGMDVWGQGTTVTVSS
Chain of Omi-18 (antibody) (VL): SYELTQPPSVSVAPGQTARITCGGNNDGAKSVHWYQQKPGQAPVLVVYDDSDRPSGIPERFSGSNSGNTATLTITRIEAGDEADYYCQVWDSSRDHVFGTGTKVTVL
Chain of Omi-42 (antibody) (VH): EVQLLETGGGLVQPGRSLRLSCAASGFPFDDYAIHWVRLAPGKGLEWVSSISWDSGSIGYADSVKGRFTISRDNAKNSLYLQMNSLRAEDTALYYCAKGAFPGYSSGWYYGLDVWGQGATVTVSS
Chain of Omi-42 (antibody) (VL): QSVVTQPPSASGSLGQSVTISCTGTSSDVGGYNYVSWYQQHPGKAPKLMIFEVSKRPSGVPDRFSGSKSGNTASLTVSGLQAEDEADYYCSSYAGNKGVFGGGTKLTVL
Chain of Omi-12 (antibody) (VH): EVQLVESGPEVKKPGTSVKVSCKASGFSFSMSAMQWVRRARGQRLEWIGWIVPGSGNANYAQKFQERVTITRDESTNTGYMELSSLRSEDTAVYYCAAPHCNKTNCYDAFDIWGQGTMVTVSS
Chain of Omi-12 (antibody) (VL): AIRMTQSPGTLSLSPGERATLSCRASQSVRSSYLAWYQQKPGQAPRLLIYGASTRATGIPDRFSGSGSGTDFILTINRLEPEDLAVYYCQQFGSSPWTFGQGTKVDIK
Chain of AZD8895 (antibody) (VH): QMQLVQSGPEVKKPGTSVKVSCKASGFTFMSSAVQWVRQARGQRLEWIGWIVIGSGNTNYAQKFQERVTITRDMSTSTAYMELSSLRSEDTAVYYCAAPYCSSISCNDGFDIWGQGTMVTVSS
Chain of AZD8895 (antibody) (VL): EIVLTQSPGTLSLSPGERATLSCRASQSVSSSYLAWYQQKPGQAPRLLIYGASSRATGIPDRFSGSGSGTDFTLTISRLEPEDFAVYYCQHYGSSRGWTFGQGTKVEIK
Chain of Omi-32 (antibody) (VH): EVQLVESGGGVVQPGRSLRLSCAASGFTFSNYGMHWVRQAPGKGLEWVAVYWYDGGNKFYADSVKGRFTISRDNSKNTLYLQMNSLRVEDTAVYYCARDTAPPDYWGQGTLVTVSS
Chain of Omi-32 (antibody) (VL): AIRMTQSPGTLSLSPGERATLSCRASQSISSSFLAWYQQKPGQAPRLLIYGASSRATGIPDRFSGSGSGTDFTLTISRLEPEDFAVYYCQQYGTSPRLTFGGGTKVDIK

Row | Substance | IC50 (pseudovirus neutralization) [1] [µg/mL] | IC50 (pseudovirus neutralization) [2] [µg/mL] | IC50, pseudoviral neutralization [3] [µg/mL] | IC50, pseudoviral neutralization [4] [µg/mL] | IC50, pseudoviral neutralization [5] [µg/mL]
1 | Omi-32 (antibody) | > 10 | > 10 |  |  | 
2 | Omi-42 (antibody) | 0.01 | 0.008 |  |  | 
3 | Omi-12 (antibody) | 0.004 | > 10 |  |  | 
4 | Ly-CoV16 (antibody) | > 10 | > 10 |  |  | 
5 | AZD1061 (antibody) | > 10 | > 10 |  |  | 
6 | S309 (antibody) | 0.436 | 0.582 |  |  | 
7 | AZD7442 | 2.73 | > 10 | 0.232 | 0.008 | 0.065
8 | Omi-03 (antibody) | 0.014 | 0.432 |  |  | 
9 | REGN10933 (antibody) | > 10 | > 10 |  |  | 
10 | Omi-29 (antibody) | 0.025 | > 10 |  |  | 
11 | Ly-CoV1404 (antibody) | > 10 | > 10 |  |  | 
12 | REGN10987 (antibody) | > 10 | > 10 |  |  | 
13 | ADG20 (antibody) | > 10 | > 10 |  |  | 
14 | AZD8895 (antibody) | 5.11 | > 10 |  |  | 
15 | Omi-18 (antibody) | 0.005 | 3.61 |  |  | 
16 | Ly-CoV555 (antibody) | > 10 | > 10 |  |  | 
